{
  "source": "patent US20230250195A1",
  "about": "“Methods for Reducing Infusion-Related Reactions in Patients Treated with EGFR/Met Bispecific Antibodies” (Janssen Biotech, Inc., priority 2022, published 2023)",
  "origin": "cited, not measured here",
  "details": "302 patients with locally advanced or metastatic NSCLC; IV amivantamab at recommended Phase 2 dose (RP2D) as a single agent",
  "data": [
    {"substance": "amivantamab: IgG1 anti-EGFR/c-Met bispecific antibody described in U.S. Pat. No. 9,593,164", "values": [
      {"measurement": "incidence of infusion-related reactions (IRRs)", "value": 66, "unit": "%"}
    ]}
  ]
}
